Results from the supplement of paper PMC10567573.

B1: HDAC6 (parent)
chain: QYMNEGELRVLADTYDSVYLHPNS
B2: VAMP4 (parent)
chain: FLRGPSGPRFGPRNDKIKHVQNQV

Variants of: B1
Assay: protein stability index of a GFP-peptide fusion (GPS, HEK-293T) (PSI 1-6); higher = more stable
Conditions: c terminus: a fixed tail appended
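Further: lentivirally expressed fusions sorted by FACS into six bins by GFP to DsRed ratio, PSI derived from sequencing read proportions per bin multiplied by bin number.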

Variant	protein stability index
QYQNEGELRVLADTYDSVYLHPNS [M3Q]	3.73
QYRNEGELRVLADTYDSVYLHPNS [M3R]	3.65
QYKNEGELRVLADTYDSVYLHPNS [M3K]	3.39
QYENEGELRVLADTYDSVYLHPNS [M3E]	3.88
QYWNEGELRVLADTYDSVYLHPNS [M3W]	2.29
QYMEEGELRVLADTYDSVYLHPNS [N4E]	3.02
QYMREGELRVLADTYDSVYLHPNS [N4R]	2.97
QYMPEGELRVLADTYDSVYLHPNS [N4P]	2.81
QYMCEGELRVLADTYDSVYLHPNS [N4C]	2.08
QYMIEGELRVLADTYDSVYLHPNS [N4I]	2.49
QYMYEGELRVLADTYDSVYLHPNS [N4Y]	1.93
QYMSEGELRVLADTYDSVYLHPNS [N4S]	2.05
QYMTEGELRVLADTYDSVYLHPNS [N4T]	2.16
QYMMEGELRVLADTYDSVYLHPNS [N4M]	2.76
QYMFEGELRVLADTYDSVYLHPNS [N4F]	1.21
QYMLEGELRVLADTYDSVYLHPNS [N4L]	1.55
QYMVEGELRVLADTYDSVYLHPNS [N4V]	1.68
QYMGEGELRVLADTYDSVYLHPNS [N4G]	1.89
QYMKEGELRVLADTYDSVYLHPNS [N4K]	2.2
QYMDEGELRVLADTYDSVYLHPNS [N4D]	1.61
QYMAEGELRVLADTYDSVYLHPNS [N4A]	1.8
QYMQEGELRVLADTYDSVYLHPNS [N4Q]	2.19
QYMHEGELRVLADTYDSVYLHPNS [N4H]	2.23

Variants of: B2
Assay: as above
Conditions: c terminus: a fixed tail appended

Variant	protein stability index
FLRGPSGPRFGPRNDKIKHVQNQY [V24Y]	3
FLRGPSGPRFGPRNDKIKHVQNQQ [V24Q]	2.76
FLRGPSGPRFGPRNDKIKHVQNQP [V24P]	2.94
FLRGPSGPRFGPRNDKIKHVQNQH [V24H]	3.18
FLRGPSGPRFGPRNDKIKHVQNQM [V24M]	3.02
FLRGPSGPRFGPRNDKIKHVQNQL [V24L]	2.67
FLRGPSGPRFGPRNDKIKHVQNQW [V24W]	2.82
FLRGPSGPRFGPRNDKIKHVQNQT [V24T]	3.08
FLRGPSGPRFGPRNDKIKHVQNQK [V24K]	3.46
FLRGPSGPRFGPRNDKIKHVQNQN [V24N]	3.49
FLRGPSGPRFGPRNDKIKHVQNQC [V24C]	2.22
FLRGPSGPRFGPRNDKIKHVQNQD [V24D]	3.4
FLRGPSGPRFGPRNDKIKHVQNQI [V24I]	2.6
FLRGPSGPRFGPRNDKIKHVQNQF [V24F]	2.53
FLRGPSGPRFGPRNDKIKHVQNQR [V24R]	3
FLRGPSGPRFGPRNDKIKHVQNQS [V24S]	2.9
FLRGPSGPRFGPRNDKIKHVQNQE [V24E]	2.89
FLRGPSGPRFGPRNDKIKHVQNQA [V24A]	2.85
FLRGPSGPRFGPRNDKIKHVQNRV [Q23R]	2.87
FLRGPSGPRFGPRNDKIKHVQNGV [Q23G]	1.8
FLRGPSGPRFGPRNDKIKHVQNSV [Q23S]	2.54
FLRGPSGPRFGPRNDKIKHVQNVV [Q23V]	2.6
FLRGPSGPRFGPRNDKIKHVQNMV [Q23M]	2.2
FLRGPSGPRFGPRNDKIKHVQNEV [Q23E]	3.39

Variant	protein stability index
FLRGPSGPRFGPRNDKIKHVQNWV [Q23W]	1.84
FLRGPSGPRFGPRNDKIKHVQNIV [Q23I]	2.14
FLRGPSGPRFGPRNDKIKHVQNKV [Q23K]	2.22
FLRGPSGPRFGPRNDKIKHVQNCV [Q23C]	2.23
FLRGPSGPRFGPRNDKIKHVQNPV [Q23P]	3.04
FLRGPSGPRFGPRNDKIKHVQNNV [Q23N]	2.98
FLRGPSGPRFGPRNDKIKHVQNHV [Q23H]	2.55
FLRGPSGPRFGPRNDKIKHVQNAV [Q23A]	2.81
FLRGPSGPRFGPRNDKIKHVQNDV [Q23D]	3.04
FLRGPSGPRFGPRNDKIKHVQNLV [Q23L]	2.81
FLRGPSGPRFGPRNDKIKHVQIQV [N22I]	1.51
FLRGPSGPRFGPRNDKIKHVQCQV [N22C]	2.56
FLRGPSGPRFGPRNDKIKHVQMQV [N22M]	1.57
FLRGPSGPRFGPRNDKIKHVQYQV [N22Y]	2.14
FLRGPSGPRFGPRNDKIKHVQTQV [N22T]	3.02
FLRGPSGPRFGPRNDKIKHVQSQV [N22S]	3.25
FLRGPSGPRFGPRNDKIKHVQDQV [N22D]	3.48
FLRGPSGPRFGPRNDKIKHVQVQV [N22V]	1.74
FLRGPSGPRFGPRNDKIKHVQKQV [N22K]	2.88
FLRGPSGPRFGPRNDKIKHVQAQV [N22A]	2.58
FLRGPSGPRFGPRNDKIKHVQHQV [N22H]	2.18
FLRGPSGPRFGPRNDKIKHVQWQV [N22W]	1.42
FLRGPSGPRFGPRNDKIKHVQFQV [N22F]	1.68
FLRGPSGPRFGPRNDKIKHVQRQV [N22R]	2.25

Variant	protein stability index
FLRGPSGPRFGPRNDKIKHVQEQV [N22E]	3.94
FLRGPSGPRFGPRNDKIKHVQGQV [N22G]	2.77
FLRGPSGPRFGPRNDKIKHVQLQV [N22L]	2.27
FLRGPSGPRFGPRNDKIKHVQQQV [N22Q]	2.48
FLRGPSGPRFGPRNDKIKHVQPQV [N22P]	2.53
FLRGPSGPRFGPRNDKIKHYQNQV [V20Y]	2.46
FLRGPSGPRFGPRNDKIKHTQNQV [V20T]	2.87
FLRGPSGPRFGPRNDKIKHWQNQV [V20W]	2.25
FLRGPSGPRFGPRNDKIKHVKNQV [Q21K]	2.81
FLRGPSGPRFGPRNDKIKHVHNQV [Q21H]	3.2
FLRGPSGPRFGPRNDKIKHVNNQV [Q21N]	3.59
FLRGPSGPRFGPRNDKIKHVVNQV [Q21V]	2.83
FLRGPSGPRFGPRNDKIKHVTNQV [Q21T]	2.29
FLRGPSGPRFGPRNDKIKHVPNQV [Q21P]	2.91
FLRGPSGPRFGPRNDKIKHVWNQV [Q21W]	1.41
FLRGPSGPRFGPRNDKIKHVLNQV [Q21L]	1.75
FLRGPSGPRFGPRNDKIKHVFNQV [Q21F]	2.42
FLRGPSGPRFGPRNDKIKHVCNQV [Q21C]	1.68
FLRGPSGPRFGPRNDKIKHVSNQV [Q21S]	2.47
FLRGPSGPRFGPRNDKIKHVMNQV [Q21M]	1.85
FLRGPSGPRFGPRNDKIKHVGNQV [Q21G]	2.55
FLRGPSGPRFGPRNDKIKHVDNQV [Q21D]	2.93
FLRGPSGPRFGPRNDKIKHVYNQV [Q21Y]	2.11
